Assay results from the supplement of paper PMC12764529.
± gives the half width of the 95% confidence interval.

Assays:
[1] = folding stability dG unfold from chymotrypsin proteolysis; higher = more stable
Summary of the method: (§1)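 Unfolding free energy was derived, per protease or combined, by relating Bayesian-fitted K50 values from sequencing counts to a sequence-predicted unfolded-state K50 and a shared folded-state K50. The underlying digests exposed cysteine-free mini-proteins under 80 residues, in a PA-tagged cDNA display construct, to trypsin and chymotrypsin at 11 threefold-diluted concentrations and to a no-protease condition. A filter kept only designs with AlphaFold2 dimer inter-PAE above 15.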

[2] = folding stability dG unfold (combined trypsin and chymotrypsin); higher = more stable
Summary of the method: as §1

[3] = folding stability dG unfold from trypsin proteolysis; higher = more stable
Summary of the method: as §1

Sequence | folding stability dG unfold [1] | folding stability dG unfold [2] | folding stability dG unfold [3]
SAGGYDFDPRGEFPFPNGVKVEVWEMTWPDGNPMTMIEIEATIPPPPKPPMSPEDAKENNKDMAKNNSAGGS [r16_8_TrROS] | 0.403 ± 0.16 kcal/mol | 0.211 ± 0.21 kcal/mol | -0.415 ± 0.12 kcal/mol
SAGGYIPASARIEVLEVFEDGTVRVRVTYPDGSEAEVVARLVRTADGRVYLEIFDPRTGRLLATLELTSAGG [r13_527_TrMRF] | 3.81 ± 0.054 kcal/mol | 3.88 ± 0.092 kcal/mol | 4.09 ± 0.09 kcal/mol
SAGGYKFTIIARFDSVEEAKEWVEEIIRDIFPDNGIEVEVEVETDPENGGVYVKATIEVPPPDPDDFSAGGS [r8_17_TrROS] | 4.36 ± 0.23 kcal/mol | 4.01 ± 0.3 kcal/mol | 2.98 ± 0.17 kcal/mol
SAGGYKITIPAMFDTPEDALDQVREIARSLGYRITDIKNVEVHKHEDNGMVMVEATIKIEPLPKGQLSAGGS [r16_155_TrROS] | 2.07 ± 0.074 kcal/mol | 1.97 ± 0.12 kcal/mol | 1.77 ± 0.042 kcal/mol
SAGIEEEVRKLFPDRELEVKVKEKRLKAPNGVPVTLYEVTVTFPDGSRYKLTLTKTPNSVTLSVTPLDASAG [r14_28_JUSTAS] | 3.34 ± 0.035 kcal/mol | 3.18 ± 0.17 kcal/mol | 2.73 ± 0.2 kcal/mol
SAGIFRFPDGQEITIPYYARTPNGKITPSEIKEQIKEFLAEQPGVKITEIEVEHEDNYVRVTITVRLPKSAG [r5_688_TrROS] | 0.316 ± 0.42 kcal/mol | 1.01 ± 0.21 kcal/mol | 1.46 ± 0.14 kcal/mol
SAGISIRFPGMQIEIDEIERDNNKVVIRVEVTMPAKNPNGQPQMMTHTMWIVIKIPPPPPPADPADAKKSAG [r5_70_TrROS] | 3.96 ± 0.053 kcal/mol | 3.51 ± 0.23 kcal/mol | 2.81 ± 0.12 kcal/mol
SAGITIIIRGPDAKEAAEDIAKELLKNGFKRPITVHVLDPDGKPWYRIKIQFDPKNPGKIKVKVEPYDSAGG [r19_85_TrROS] | 3.66 ± 0.042 kcal/mol | 3.65 ± 0.076 kcal/mol | 3.39 ± 0.089 kcal/mol
SAGITITVPPGKPYYVHITMYMFDPNGKLMGPQTIMFPIRVPPDDTIEIPIPFDSPNIRITDISIMPKSAGG [r19_295_TrROS] | 2.54 ± 0.094 kcal/mol | 2.4 ± 0.16 kcal/mol | 1.98 ± 0.058 kcal/mol
SAGIVIPINNPEQAEELAKEFAPEYGYEVEIERVPPGEPLEELPPNDIIVHDPDSGWFYKIKIKRPDEKSAG [r5_173_TrROS] | 0.134 ± 0.43 kcal/mol | 0.29 ± 0.24 kcal/mol | 0.38 ± 0.1 kcal/mol
SAGKDGDPPKRVRIKFKIPLPGGKLYEVTQTFYPNGSVHVSIRFPNGWMLSAWIPPDGDIEIKIMPIKKSAG [r5_168_TrROS] | 4.3 ± 0.14 kcal/mol | 4 ± 0.23 kcal/mol | 3.37 ± 0.21 kcal/mol
SAGKEIIIPFRDIPPKYIKNQLKKFPPGKEIRIMFPGPEVADYLKEKGFPVRPERIKPITPDDMAKMMNSAG [r5_354_TrROS] | -0.186 ± 0.26 kcal/mol | -0.258 ± 0.28 kcal/mol | -0.149 ± 0.4 kcal/mol
SAGKEKEIAEAIEEFLKEKGYDVKVKLIKVNPNNPNLSKVVLEVEVLGYLPDKKPLGKKRFKLVILGGSAGG [r19_418_TrMRF] | 2.72 ± 0.046 kcal/mol | 2.52 ± 0.17 kcal/mol | 2.64 ± 0.066 kcal/mol
SAGKEKEVKEVTIKIKIYVTNKNGEKKEITIEVKAKNKEDLLEALKKLGLSVEELKEKFPNIKIVEIEPSAG [r5_430_TrROS_Hall] | 4.05 ± 0.22 kcal/mol | 4.01 ± 0.55 kcal/mol | 2.3 ± 0.22 kcal/mol
SAGKELTIEIVIERNGELITLTIKAKSEEELLEALKKLLEELGFEVEDIKIEKKDGEVIVTVTIRLPKKSAG [r5_946_TrROS_Hall] | 3.83 ± 0.081 kcal/mol | 3.43 ± 0.15 kcal/mol | 2.7 ± 0.13 kcal/mol
